PMC9204302, “Novel Pharmacology Following Heteromerization of the Angiotensin II Type 2 Receptor and the Bradykinin Type 2 Receptor” (Frontiers in Endocrinology, 2022)
Each block holds one molecule with its values, some of them ahead of it.

Tests used:
[1] = target: B2 receptor tagged with Rluc8 (B2-Rluc8) (human) (UniProt P30411); experiment: FRET or BRET; BRET1/eBRET in live HEK293FT cells, one BRET-tagged receptor and one BRET-tagged interacting protein coexpressed, no second receptor; ligand-induced BRET after AngII or BK, 37°C
[2] = target: T1, Venus-tagged B2 receptor (B2-Venus) (human, UniProt P30411 1-391); experiment: as above; details: partners not purified
T1 construct: made by replacing the Rluc8 coding region of B2-Rluc8 with Venus cDNA; C-terminal end of the tag follows from the parent B2-Rluc8; source: HEK293FT, transiently transfected, in live cells; not shown: Venus, C-terminal, kept
T1 sequence (looked up): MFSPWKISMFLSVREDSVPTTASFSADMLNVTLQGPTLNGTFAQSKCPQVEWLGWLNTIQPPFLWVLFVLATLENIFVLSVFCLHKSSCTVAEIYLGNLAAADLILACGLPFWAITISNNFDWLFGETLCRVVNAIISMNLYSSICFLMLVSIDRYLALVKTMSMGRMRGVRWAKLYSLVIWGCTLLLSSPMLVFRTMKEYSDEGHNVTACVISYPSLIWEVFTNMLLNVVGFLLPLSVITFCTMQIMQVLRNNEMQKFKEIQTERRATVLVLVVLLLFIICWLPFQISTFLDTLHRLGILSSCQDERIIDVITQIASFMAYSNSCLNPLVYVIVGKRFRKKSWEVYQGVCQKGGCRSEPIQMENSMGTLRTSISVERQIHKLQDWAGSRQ

pEC50 of BK (ligand-induced BRET) [1]: 7.73
Molecule: NES-Venus-mGsq (Venus-tagged mini G protein)

pEC50 of BK (ligand-induced BRET) [2]: 7.35
B1: Rluc8-tagged GRK2 (GRK2-Rluc8) (enzyme, UniProt P25098 1-689, looked up)
chain: MADLEAVLADVSYLMAMEKSKATPAARASKKILLPEPSIRSVMQKYLEDRGEVTFEKIFSQKLGYLLFRDFCLNHLEEARPLVEFYEEIKKYEKLETEEERVARSREIFDSYIMKELLACSHPFSKSATEHVQGHLGKKQVPPDLFQPYIEEICQNLRGDVFQKFIESDKFTRFCQWKNVELNIHLTMNDFSVHRIIGRGGFGEVYGCRKADTGKMYAMKCLDKKRIKMKQGETLALNERIMLSLVSTGDCPFIVCMSYAFHTPDKLSFILDLMNGGDLHYHLSQHGVFSEADMRFYAAEIILGLEHMHNRFVVYRDLKPANILLDEHGHVRISDLGLACDFSKKKPHASVGTHGYMAPEVLQKGVAYDSSADWFSLGCMLFKLLRGHSPFRQHKTKDKHEIDRMTLTMAVELPDSFSPELRSLLEGLLQRDVNRRLGCLGRGAQEVKESPFFRSLDWQMVFLQKYPPPLIPPRGEVNAADAFDIGSFDEEDTKGIKLLDSDQELYRNFPLTISERWQQEVAETVFDTINAETDRLEARKKAKNKQLGHEEDYALGKDCIMHGYMSKMGNPFLTQWQRRYFYLFPNRLEWRGEGEAPQSLLTMEEIQSVEETQIKERKCLLLKIRGGKQFILQCDSDPELVQWKKELRDAYREAQQLVQRVPKMKNKPRSPVVELSKVPLVQRGSANGL
notes: GPCR kinase 2 (GRK2); construct synthesized by GeneArt; also called GPCR kinase 2; source: HEK293FT, transiently transfected, in live cells
